Blank lines part the entries; values can stand above or below the binder they belong to.
Experiments:
[1] = target: solubilized, full length GCGR, biotinylated (from baculovirus particles) (Homo sapiens (Human)) (UniProt P47871); test: Octet BLI kinetics, biotinylated solubilized full length GCGR on streptavidin tips, Fab in solution
[2] = target: T1, GCGR (glucagon receptor) on primary human hepatocytes (human, UniProt P47871 26-477); test: competition with 3 nM 125I-glucagon on primary human hepatocytes, gamma counting
T1 construct: Endogenous receptor on primary human hepatocytes (Celsis)
T1 sequence (P47871 26-477 limits assumed): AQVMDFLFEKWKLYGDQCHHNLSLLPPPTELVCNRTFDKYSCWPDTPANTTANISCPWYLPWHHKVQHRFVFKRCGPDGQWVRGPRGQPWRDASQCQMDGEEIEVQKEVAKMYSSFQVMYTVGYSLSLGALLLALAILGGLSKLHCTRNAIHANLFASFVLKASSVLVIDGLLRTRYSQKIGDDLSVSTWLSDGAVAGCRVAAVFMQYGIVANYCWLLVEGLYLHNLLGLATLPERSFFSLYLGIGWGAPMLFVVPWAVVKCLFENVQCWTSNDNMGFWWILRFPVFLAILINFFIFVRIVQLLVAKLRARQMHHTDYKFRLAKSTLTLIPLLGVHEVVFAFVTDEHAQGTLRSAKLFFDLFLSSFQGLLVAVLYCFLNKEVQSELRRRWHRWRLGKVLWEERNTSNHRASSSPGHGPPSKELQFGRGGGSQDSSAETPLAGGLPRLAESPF

Chain of solubilized, full length GCGR, biotinylated (from baculovirus particles) (Homo sapiens (Human)) (P47871 26-477): as the sequence (P47871 26-477 limits assumed) above

fold increase in affinity (Kd) over H6.23v2 [1]: 3 fold
B1: H6.23v3 Fab fragment (Fab, V domains shown)
VH: EVQLVESGGGLVQPGGSLRLSCAASGFNIYYNYIHWVRQAPGKGLEWVAEFSPYSGSTYYADSVKGRFTISADTSKNTAYLQMNSLRAEDTAVYYCARSAAIVDWYDYFKGFDYWGQGTLVTVSS
VL: DIQMTQSPSSLSASVGDRVTITCRASQSVSSAVAWYQQKPGKAPKLLIYSASSLYSGVPSRFSGSRSGTDFTLTISSLQPEDFATYYCQQYGSYLYTFGQGTKVEIK

binding result [2]: binds
B2: anti-GCGR antibody H6.23v3 (antibody, V domains shown)
VH: B1 VH
VL: B1 VL
